kcat and Km data for four proteins are collected here from article PMC8938923, “Essential Functional Interplay of the Catalytic Groups in Acid Phosphatase” (ACS Catalysis, 2022).

Changes are numbered by the printed parent chain. Names and notes keep the numbering of the source.

Substrate in data set [1]: O=P(O)(O)O[C@H]1O[C@H](CO)[C@@H](O)[C@H](O)[C@H]1O
As to the kind of experiment: phosphomonoester hydrolysis kinetics. Type of data set: biochemical, Escherichia coli.

Substrate in data set [2]: O=P(O)(O)O[C@H]1O[C@H](CO)[C@@H](O)[C@H](O)[C@H]1O
Put plainly: purified protein, by the assay type. More on the design: Michaelis-Menten kinetics of substrate hydrolysis, initial rates of free phosphate release, pH 7.0, 37 °C. The protocol:
8 S1.10 Structure determination and refinement The structure of H18D was determined by molecular replacement with PHASER9 using PDB ID: 1NT4 (H18A) as a search model. Model building was performed with COOT10 and refine-ment was carried out with phenix.refine. 11 The final structures were evaluated using MolPro-bity. 12 The number of Ramachandran outliers was below 0.2%. Figures of the structural models were prepared using PyMol 1.3. 13 S1.11 Phosphatase kinetics The rate constant kcat and the Michaelis constant KM were determined by measuring the initial rate of phosphate hydrolysis catalyzed by wild-type ecAGP (2 nM), H18D or H18D-2 (110 µM), D290A (2 nM - 5 µM, depending on the substrate used) or H18D/D290A (110 µM) in 50 mM HEPES buffer (pH 7.0). Reactions were incubated at 37°C on a Thermomixer comfort (Eppendorf, Hamburg, Germany) with agitation at 650 rpm. The reactions were started by ad-dition of enzyme. Glc1P, Glc6P, and the bis(cyclohexylammonium) salts of [compound left out], 2-nitrophenyl phosphate, 3-nitrophenyl phosphate, [compound left out] phosphate, 4-cyanophenyl S13 phosphate and 3-chlorophenyl phosphate were used as substrates in concentrations ranging from 0.01 mM to 10 mM. Incubation times were adjusted to ensure that the overall substrate hydrolysis was below 10 %. Samples withdrawn were quenched by heating (99°C, 5 min) and the free phosphate concentration was measured in supernatants of centrifuged (16000 × g, 15 min, 4°C) samples. All reactions were performed in triplicate. Kinetic parameters were obtained from non-linear least squares fits (SigmaPlot, Systat, Erkrath, Germany) of initial rates of phosphate release to the Michaelis–Menten equation. V is the initial rate, Vmax is the maximum initial rate, KM is the Michaelis constant and [S] is the initial substrate concentration (equation 1). The kcat was obtained from the relationship, kcat = Vmax/[E], where [E] is the molar concentration of active sites. [E] was obtained from the protein concentration using a molecular mass of the ecAGP subunit of 46674 Da. S10 (Merck Millipore) to a total protein concentration of 13 mg/mL in 10 mM NaAc (pH 4.5). Aliquots of 70 µL were stored at -70°C until use. Purity of the protein preparations was verified by SDS-PAGE. The ecAGP activity was assayed as described below in the section phosphatase kinetics. One unit of ecAGP activity is the amount of enzyme releasing 1 μmol of inorganic phosphate from Glc1P per minute under the conditions applied. S1.5 YidA The YidA from E. coli was used. A N-terminally His-tagged enzyme preparation was applied. […]

B1: ecAGP (α-D-glucose 1-phosphate phosphatase) (Escherichia coli K-12) (protein)
chain: QTVPEGYQLQQVLMMSRHNLRAPLANNGSVLEQSTPNKWPEWDVPGGQLTTKGGVLEVYMGHYMREWLAEQGMVKSGECPPPYTVYAYANSLQRTVATAQFFITGAFPGCDIPVHHQEKMGTMDPTFNPVITDDSAAFSEQAVAAMEKELSKLQLTDSYQLLEKIVNYKDSPACKEKQQCSLVDGKNTFSAKYQQEPGVSGPLKVGNSLVDAFTLQYYEGFPMDQVAWGEIKSDQQWKVLSKLKNGYQDSLFTSPEVARNVAKPLVSYIDKALVTDRTSAPKITVLVGHDSNIASLLTALDFKPYQLHDQNERTPIGGKIVFQRWHDSKANRDLMKIEYVYQSAEQLRNADALTLQAPAQRVTLELSGCPIDADGFCPMDKFDSVLNEAVK
notes: purified enzyme; homodimer; expression construct and tags only in supplement
Regarding B1, the kcat in data set [1] (range printed jointly for wild-type and H18D, individual values in supplement) is listed as 35 ± 2 s^–1. In data set [2], the Michaelis constant (Km) (in general, the concentration of substrate that gives half-maximal velocity) turned out to be 90 ± 20 µM and the kcat worked out at 35 ± 1.7 s⁻¹.

B2: ecAGP (α-D-glucose 1-phosphate phosphatase) (Escherichia coli K-12; D312A) (protein)
chain: B1 chain with D290A
notes: as for B1
In the case of B2, in data set [1] (general acid-base removed), the Michaelis-Menten constant (Km) was 1060 ± 120 µM and the kcat is 0.014 ± 0.01 s⁻¹.

B3: ecAGP (α-D-glucose 1-phosphate phosphatase) (Escherichia coli K-12; H40D) (protein)
chain: B1 chain with H18D
notes: as for B1
On to B3, for which the kcat in data set [1] (range printed jointly for wild-type and H18D, phospho-enzyme intermediate on Asp18) is listed as 2.0 × 10^–4 s^–1.

B4: YidA (alternative name: HAD13) (Escherichia coli K-12) (protein)
chain: MAIKLIAIDMDGTLLLPDHTISPAVKNAIAAARARGVNVVLTTGRPYAGVHNYLKELHMEQPGDYCITYNGALVQKAADGSTVAQTALSYDDYRFLEKLSREVGSHFHALDRTTLYTANRDISYYTVHESFVATIPLVFCEAEKMDPNTQFLKVMMIDEPAILDQAIARIPQEVKEKYTVLKSAPYFLEILDKRVNKGTGVKSLADVLGIKPEEIMAIGDQENDIAMIEYAGVGVAMDNAIPSVKEVANFVTKSNLEDGVAFAIEKYVLN
notes: construct only in supplement
Consider B4, for which, in data set [2], the Km was 210 ± 30 µM and the kcat was determined as 20 ± 1.3 s⁻¹.
